Data reported in patent publication EP1757701A1.

Assays:
Y0317-570 Fab [1] = assay: BIAcore; estimated from the observed koff with an assumed kon
Y0317-570 Fab [2] = assay: BIAcore, 1:1 Langmuir model: Herceptin dissociating from Y0317-570 Fab held on immobilized VEGF

Kd (Y0317-570 Fab [1]): 30 to 300 nM | dissociation half-life (t1/2) (Y0317-570 Fab [2]): 8.5 min
Substance: 4D5-IgG, also known as Herceptin® (antibody)
